Paper PMC7858072

Target: MBP-FhtR (faecalis heme transport regulator fused to the maltose binding protein) (Enterococcus faecalis OG1RF)
Assay: SEC; 40 uM apo- or holo- (hemin-complexed) MBP-FhtR in 100 ul loaded on Superdex 200 Increase 10/300 GL; 20 mM HEPES (pH 7), 300 mM NaCl; read at OD280 and OD410

stoichiometry N: 2
Substance: MBP-FhtR (faecalis heme transport regulator fused to the maltose binding protein) (natural protein)
